Results published in patent publication US20210253724A1 (Hoffmann-La Roche, published 2021).

T1: human CEACAM5 (CEA) on cells (human, UniProt P06731 35-685)
T1 construct: Endogenous on MKN45 cells; full-length cDNA transfected into CHO-K1 cells; also called CEA expressed on MKN45 cells; CHO-k1-huCEACAM5 clone 11, clone 12, clone 13
T1 sequence: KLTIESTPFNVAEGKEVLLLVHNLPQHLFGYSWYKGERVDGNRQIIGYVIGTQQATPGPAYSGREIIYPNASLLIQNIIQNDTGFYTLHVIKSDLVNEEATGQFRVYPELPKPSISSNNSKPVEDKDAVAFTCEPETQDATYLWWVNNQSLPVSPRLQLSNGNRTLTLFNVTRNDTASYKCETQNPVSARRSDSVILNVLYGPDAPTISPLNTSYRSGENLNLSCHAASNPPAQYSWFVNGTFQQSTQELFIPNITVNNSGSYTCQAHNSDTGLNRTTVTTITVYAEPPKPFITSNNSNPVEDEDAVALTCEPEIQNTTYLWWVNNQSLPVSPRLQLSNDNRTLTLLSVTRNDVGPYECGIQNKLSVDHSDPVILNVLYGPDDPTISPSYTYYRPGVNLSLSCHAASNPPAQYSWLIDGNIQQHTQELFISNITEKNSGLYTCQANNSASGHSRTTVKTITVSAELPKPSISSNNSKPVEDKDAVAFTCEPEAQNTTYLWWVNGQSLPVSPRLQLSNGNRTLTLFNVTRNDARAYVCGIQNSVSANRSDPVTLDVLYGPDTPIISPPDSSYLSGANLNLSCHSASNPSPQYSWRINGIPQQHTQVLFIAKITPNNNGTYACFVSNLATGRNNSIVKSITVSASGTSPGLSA


What was measured:
[1] = target: T2, cynomolgus monkey CEACAM5 on CHO-k1-cynoCEACAM5 clone 8 cells (cynomolgus monkey); experiment: flow cytometry on CHO-k1-cynoCEACAM5 clone 8; set-up: unit not given beside the values
T2 construct: whole, on cells

[2] = target: T1, human CEACAM5 (CEA) on cells; experiment: flow cytometry on CHO-k1-humanCEACAM5 clone 12
Protocol: (§1) Cells were incubated for 30 min at 4° C. and then washed twice with 80 μL/well DPBS. […] Cells were washed twice with 80 μL/well DPBS and then fixed in 30 μL/well DPBS containing 1% Formaldehyde for at least 15 minutes. The same or the next day cells were resuspended in 50 μL/well FACS-buffer and acquired using MACSQuant Analyzer X (Miltenyi Biotec).

[3] = target: T1, human CEACAM5 (CEA) on cells; experiment: flow cytometry on CHO-k1-humanCEACAM5 clone 13
Protocol: as §1

[4] = target: T3, human 4-1BB (CD137) on Jurkat-hu4-1BB-NFκB-luc2 reporter cells (human, UniProt Q07011 24-255); experiment: cell-based or functional assay; set-up: AUC of NFκB-luciferase activation curve, no CEA+ cells / AUC of NFκB-luciferase activation curve, with CHO-k1-cynoCEACAM5 clone 8: unit not given beside the values
[5] = target: T1, human CEACAM5 (CEA) on cells; experiment: flow cytometry on CHO-k1-humanCEACAM5 clone 11
Protocol: as §1

[6] = target: T2, cynomolgus monkey CEACAM5 on …; experiment: flow cytometry on CHO-k1-cynoCEACAM5 clone 8
Protocol: as §1

[7] = target: T3, human 4-1BB (CD137) on …; experiment: cell-based or functional assay
[8] = target: T3, human 4-1BB (CD137) on …; experiment: flow cytometry on Jurkat-hu4-1BB-NFκB-luc2 cells
Protocol: Plates were incubated for 30 minutes at 4° C. and washed once with 200 μL 4° C. cold DPBS buffer. […] Cells were washed twice with 200 μL 4° C. DPBS buffer and then resuspended in 50 μL/well DPBS containing 1% Formaldehyde for fixation. The same or the next day cells were resuspended in 100 μL FACS-buffer and acquired using MACSQuant Analyzer X (Miltenyi Biotec).

[9] = target: T1, human CEACAM5 (CEA) on cells; experiment: flow cytometry on CHO-K1-humanCEACAM5 clone 12 cells, goat F(ab')2 anti-human Fcγ-PE, median fluorescence intensity baseline corrected
Protocol: as §1

[10] = target: T4, human PD-L1 on MKN45-huPD-L1 cells (human, UniProt Q9NZQ7 19-290); experiment: flow cytometry on MKN45-huPD-L1 cells, goat F(ab')2 anti-human Fcγ-PE, gMFI baseline corrected
T4 construct: Full-length cDNA transfected into MKN45 cells; also called humanPD-L1-expressing MKN45 cells
T4 sequence (Q9NZQ7 19-290 limits assumed): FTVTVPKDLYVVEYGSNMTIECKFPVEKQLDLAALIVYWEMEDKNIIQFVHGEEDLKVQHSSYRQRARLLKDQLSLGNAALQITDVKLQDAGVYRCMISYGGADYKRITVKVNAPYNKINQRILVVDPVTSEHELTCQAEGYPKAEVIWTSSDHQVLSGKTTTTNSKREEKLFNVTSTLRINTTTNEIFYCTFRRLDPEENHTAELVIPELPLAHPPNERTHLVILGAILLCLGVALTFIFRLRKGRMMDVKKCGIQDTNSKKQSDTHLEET
Protocol: as §1

Binder | AUC [1] | EC50 [2] [nM] | EC50 [3] [nM] | AUC of NFκB-luciferase activation curve, no CEA+ cells [4] | AUC of NFκB-luciferase activation curve, with CHO-k1-cynoCEACAM5 clone 8 [4] | AUC of NFκB-luciferase activation curve, with CHO-k1-humanCEACAM5 clone 11 [4] | AUC of NFκB-luciferase activation curve, with CHO-k1-humanCEACAM5 clone 12 [4] | EC50 [5] [nM] | EC50 [6] [nM] | EC50 of NFκB-luciferase activation curve, no CEA+ cells [7] [nM] | EC50 of NFκB-luciferase activation curve, with CHO-k1-cynoCEACAM5 clone 8 [7] [nM] | EC50 of NFκB-luciferase activation curve, with CHO-k1-humanCEACAM5 clone 11 [7] [nM] | EC50 of NFκB-luciferase activation curve, with CHO-k1-humanCEACAM5 clone 12 [7] [nM] | EC50 [8] [nM] | binding result [9] | binding result [10]
2+1 H2H 4-1BB (20H4.9)/CEA (A5B7) P329GLALA IgG1 (bispecific antibody, also called 2+1 H2H anti-4-1BB (20H4.9)×anti-CEA (A5B7) huIgG1 P329GLALA) heavy 1: QVQLQQWGAGLLKPSETLSLTCAVYGGSFSGYYWSWIRQSPEKGLEWIGEINHGGYVTYNPSLESRVTISVDTSKNQFSLKLSSVTAADTAVYYCARDYGPGNYDWYFDLWGRGTLVTVSSASTKGPSVFPLAPSSKSTSGGTAALGCLVEDYFPEPVTVSWNSGALTSGVHTFPAVLQSSGLYSLSSVVTVPSSSLGTQTYICNVNHKPSNTKVDEKVEPKSCDKTHTCPPCPAPEAAGGPSVFLFPPKPKDTLMISRTPEVTCVVVDVSHEDPEVKFNWYVDGVEVHNAKTKPREEQYNSTYRVVSVLTVLHQDWLNGKEYKCKVSNKALGAPIEKTISKAKGQPREPQVCTLPPSRDELTKNQVSLSCAVKGFYPSDIAVEWESNGQPENNYKTTPPVLDSDGSFFLVSKLTVDKSRWQQGNVFSCSVMHEALHNHYTQKSLSLSP heavy 2: not shown light 1: not shown light 2: EVKLVESGGGLVQPGGSLRLSCATSGFTFTDYYMNWVRQPPGKALEWLGFIGNKANGYTTEYSASVKGRFTISRDKSQSILYLQMNTLRAEDSATYYCTRDRGLRFYFDYWGQGTTLTVSSASVAAPSVFIFPPSDEQLKSGTASVVCLLNNFYPREAKVQWKVDNALQSGNSQESVTEQDSKDSTYSLSSTLTLSKADYEKHKVYACEVTHQGLSSPVTKSFNRGEC | 4850 | 13.9 | 12.9 | 1320 | 43100 | 65700 | 58900 | 11.4 | 48.8 | 0.04 | 0.07 | 0.04 | 0.03 | – | – | –
anti-4-1BB (20H4.9) huIgG1 P329GLALA (antibody, V domains shown, Standard huIgG1 P329G LALA antibody with two anti-4-1BB Fabs) VH: QVQLQQWGAGLLKPSETLSLTCAVYGGSFSGYYWSWIRQSPEKGLEWIGEINHGGYVTYNPSLESRVTISVDTSKNQFSLKLSSVTAADTAVYYCARDYGPGNYDWYFDLWGRGTLVTVSS VL: EIVLTQSPATLSLSPGERATLSCRASQSVSSYLAWYQQKPGQAPRLLIYDASNRATGIPARFSGSGSGTDFTLTISSLEPEDFAVYYCQQRSNWPPALTFGGGTKVEIK | 136 | – | – | 5070 | 4920 | 15400 | 11900 | – | – | 0.19 | 0.17 | 0.18 | 0.19 | 0.073 | no binding (tested: about 300 nM) | no binding (tested: 100 nM)
